Source: PMC5809250
Each block holds one substance with its values, some of them ahead of it.

Experiments:
Experiment in all cases: AUC
[1] = molecular target: Kogenate FS (recombinant full-length factor VIII, HC–LC heterodimer) (human) (UniProt P00451)
[2] = molecular target: Helixate FS (recombinant full-length factor VIII, HC–LC heterodimer) (human) (UniProt P00451)
[3] = molecular target: Advate (recombinant full-length factor VIII, HC–LC heterodimer) (human) (UniProt P00451)

percent of the protein-related absorbance signal in the 10.5–10.6 S peak [1]: 5%
stoichiometry N [1]: 2
Substance: Kogenate FS (recombinant full-length factor VIII, HC–LC heterodimer) (from UniProt P00451 20-1332; P00451 1668-2351) (complex)

stoichiometry N [2]: 2
Substance: Helixate FS (recombinant full-length factor VIII, HC–LC heterodimer) (from UniProt P00451 20-1332; P00451 1668-2351) (complex)

percent of the A280 signal in the 12–20 S distribution (Lot 2) [3]: 3.8%
percent of the protein-related absorbance signal in the 10.5–10.6 S peak [3]: 7%
stoichiometry N [3]: 2
Substance: Advate (recombinant full-length factor VIII, HC–LC heterodimer) (from UniProt P00451 20-1332; P00451 1668-2351) (complex)
